{
  "source": "IntAct's records for PubMed 24583011",
  "key": {"sv2c_rat Sv2c [1]": {"target": "T1, sv2c_rat Sv2c (UniProt Q9Z2I6)", "T1 sequence": "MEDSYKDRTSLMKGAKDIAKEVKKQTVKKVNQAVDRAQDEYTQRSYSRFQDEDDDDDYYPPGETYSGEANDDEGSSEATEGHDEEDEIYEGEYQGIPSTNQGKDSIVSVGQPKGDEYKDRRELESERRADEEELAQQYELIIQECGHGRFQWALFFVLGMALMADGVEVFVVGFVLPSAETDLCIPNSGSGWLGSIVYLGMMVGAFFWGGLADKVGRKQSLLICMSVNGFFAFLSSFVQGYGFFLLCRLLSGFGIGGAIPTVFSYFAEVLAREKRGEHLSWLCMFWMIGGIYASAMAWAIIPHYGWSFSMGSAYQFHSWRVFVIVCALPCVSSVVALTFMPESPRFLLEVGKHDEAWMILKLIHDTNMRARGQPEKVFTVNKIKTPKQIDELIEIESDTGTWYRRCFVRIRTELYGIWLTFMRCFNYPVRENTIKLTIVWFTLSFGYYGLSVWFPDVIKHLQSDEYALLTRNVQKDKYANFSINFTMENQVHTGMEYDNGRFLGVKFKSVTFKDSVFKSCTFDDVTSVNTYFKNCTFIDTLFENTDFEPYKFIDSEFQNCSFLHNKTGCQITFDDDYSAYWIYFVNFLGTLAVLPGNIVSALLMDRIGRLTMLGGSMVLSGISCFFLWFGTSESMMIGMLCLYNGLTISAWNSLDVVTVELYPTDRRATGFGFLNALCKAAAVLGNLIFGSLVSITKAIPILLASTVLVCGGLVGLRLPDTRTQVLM"}, "sv2c_rat Sv2c [2]": {"target": "T1, sv2c_rat Sv2c", "remark": "listed apart in the source"}, "sv2c_rat Sv2c [3]": {"target": "T1, sv2c_rat Sv2c", "remark": "listed apart in the source"}, "sv2c_rat Sv2c [4]": {"target": "T1, sv2c_rat Sv2c", "remark": "listed apart in the source"}, "sv2c_rat Sv2c [5]": {"target": "T1, sv2c_rat Sv2c", "remark": "listed apart in the source"}, "sv2c_rat Sv2c [6]": {"target": "T1, sv2c_rat Sv2c", "remark": "listed apart in the source"}, "sv2c_rat Sv2c [7]": {"target": "T1, sv2c_rat Sv2c", "remark": "listed apart in the source"}, "sv2c_rat Sv2c [8]": {"target": "T1, sv2c_rat Sv2c", "remark": "listed apart in the source"}, "sv2c_rat Sv2c [9]": {"target": "T1, sv2c_rat Sv2c", "remark": "listed apart in the source"}, "sv2c_rat Sv2c [10]": {"target": "T1, sv2c_rat Sv2c", "remark": "listed apart in the source"}},
  "data": [
    {"substance": "Botulinum neurotoxin type A (Clostridium botulinum) (from UniProt P0DPI0) R1156M", "values": [
      {"measurement": "effect of a mutation on the interaction", "setting": "sv2c_rat Sv2c [1]", "result": "decreasing interaction"}
    ]},
    {"substance": "Botulinum neurotoxin type A (Clostridium botulinum) (from UniProt P0DPI0) K1163E", "values": [
      {"measurement": "effect of a mutation on the interaction", "setting": "sv2c_rat Sv2c [2]", "result": "decreasing interaction"}
    ]},
    {"substance": "Botulinum neurotoxin type A (Clostridium botulinum) (from UniProt P0DPI0) N905Y", "values": [
      {"measurement": "effect of a mutation on the interaction", "setting": "sv2c_rat Sv2c [3]", "result": "decreasing interaction"}
    ]},
    {"substance": "Botulinum neurotoxin type A (Clostridium botulinum) (from UniProt P0DPI0) V1287E", "values": [
      {"measurement": "effect of a mutation on the interaction", "setting": "sv2c_rat Sv2c [4]", "result": "decreasing interaction"}
    ]},
    {"substance": "Botulinum neurotoxin type A (Clostridium botulinum) (from UniProt P0DPI0) H1064G", "values": [
      {"measurement": "effect of a mutation on the interaction", "setting": "sv2c_rat Sv2c [5]", "result": "decreasing interaction"}
    ]},
    {"substance": "Botulinum neurotoxin type A (Clostridium botulinum) (from UniProt P0DPI0) D1108R", "values": [
      {"measurement": "effect of a mutation on the interaction", "setting": "sv2c_rat Sv2c [6]", "result": "decreasing interaction"}
    ]},
    {"substance": "Botulinum neurotoxin type A (Clostridium botulinum) (from UniProt P0DPI0) G1292R", "values": [
      {"measurement": "effect of a mutation on the interaction", "setting": "sv2c_rat Sv2c [7]", "result": "decreasing interaction"}
    ]},
    {"substance": "Botulinum neurotoxin type A (Clostridium botulinum) (from UniProt P0DPI0) N1188A", "values": [
      {"measurement": "effect of a mutation on the interaction", "setting": "sv2c_rat Sv2c [8]", "result": "decreasing interaction"}
    ]},
    {"substance": "Botulinum neurotoxin type A (Clostridium botulinum) (from UniProt P0DPI0) R1131E", "values": [
      {"measurement": "effect of a mutation on the interaction", "setting": "sv2c_rat Sv2c [9]", "result": "decreasing interaction"}
    ]},
    {"substance": "Botulinum neurotoxin type A (Clostridium botulinum) (from UniProt P0DPI0) T1063P", "values": [
      {"measurement": "effect of a mutation on the interaction", "setting": "sv2c_rat Sv2c [10]", "result": "decreasing interaction"}
    ]}
  ]
}
